Source: the supplement of paper PMC9112550, “Optimization of the antimicrobial peptide Bac7 by deep mutational scanning” (BMC Biology, 2022)

Each sequence was assayed on Escherichia coli TOP10 (assay: shrunken log2 fold change of peptide-encoding DNA abundance (4.5 h post-induction vs induction); higher = less antimicrobial activity (less host growth inhibition)). Conditions: time post-induction: 4.5 h; library: site-saturation at positions 5, 18, 19, 20.
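Also: peptides expressed intracellularly from a pBAD plasmid library in pooled LB shake-flask culture, induced with 0.3% L-arabinose, DNA abundance read by NGS, three biological replicates, DESeq2 with apeglm shrinkage.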

| Sequence | shrunken log2 fold change |
| --- | --- |
| RRIRHRPPRLPRPRPRPNMCPRP | -0.126 |
| RRIRHRPPRLPRPRPRPWWGPRP | -0.0666 |
| RRIRTRPPRLPRPRPRPILWPRP | 0.0348 |
| RRIRTRPPRLPRPRPRPTFSPRP | -0.169 |
| RRIRHRPPRLPRPRPRPQGDPRP | 0.0795 |
| RRIRDRPPRLPRPRPRPCQYPRP | -0.0971 |
| RRIRCRPPRLPRPRPRPKGHPRP | -0.17 |
| RRIRFRPPRLPRPRPRPMAFPRP | -0.126 |
| RRIRDRPPRLPRPRPRPFLMPRP | -0.0685 |
| RRIRVRPPRLPRPRPRPGYYPRP | -0.248 |
| RRIRMRPPRLPRPRPRPTIGPRP | 0.277 |
| RRIRHRPPRLPRPRPRPTLTPRP | -0.188 |
| RRIRNRPPRLPRPRPRPFYGPRP | -0.107 |
| RRIRDRPPRLPRPRPRPCNVPRP | 0.0436 |
| RRIRSRPPRLPRPRPRPSQWPRP | -0.176 |
| RRIRNRPPRLPRPRPRPVSQPRP | -0.0152 |
| RRIRRRPPRLPRPRPRPCGGPRP | 0.686 |
| RRIRLRPPRLPRPRPRPCGGPRP | 0.091 |
| RRIRTRPPRLPRPRPRPESHPRP | -0.164 |
| RRIRPRPPRLPRPRPRPIAWPRP | 0.266 |
| RRIRFRPPRLPRPRPRPWADPRP | -0.168 |
| RRIRRRPPRLPRPRPRPTKSPRP | 0.226 |
| RRIRRRPPRLPRPRPRPCQNPRP | -0.0482 |
| RRIRGRPPRLPRPRPRPYEAPRP | 0.045 |
| RRIRNRPPRLPRPRPRPQDVPRP | -0.0757 |

| Sequence | shrunken log2 fold change |
| --- | --- |
| RRIRNRPPRLPRPRPRPRPNPRP | 0.135 |
| RRIRFRPPRLPRPRPRPGAHPRP | -0.126 |
| RRIRVRPPRLPRPRPRPIFIPRP | -0.328 |
| RRIRWRPPRLPRPRPRPPIMPRP | 0.271 |
| RRIRGRPPRLPRPRPRPYFEPRP | -0.123 |
| RRIRPRPPRLPRPRPRPLTWPRP | 0.0214 |
| RRIRLRPPRLPRPRPRPQCKPRP | -0.425 |
| RRIRCRPPRLPRPRPRPQLQPRP | 0.0481 |
| RRIRFRPPRLPRPRPRPPGIPRP | 0.151 |
| RRIRARPPRLPRPRPRPDQLPRP | 0.421 |
| RRIRHRPPRLPRPRPRPFLNPRP | -0.169 |
| RRIRPRPPRLPRPRPRPEKRPRP | 0.0688 |
| RRIRPRPPRLPRPRPRPMYRPRP | -0.752 |
| RRIRARPPRLPRPRPRPDYAPRP | 2.44 |
| RRIRGRPPRLPRPRPRPAYKPRP | -0.202 |
| RRIRGRPPRLPRPRPRPQPHPRP | 0.582 |
| RRIRNRPPRLPRPRPRPAFQPRP | -0.0462 |
| RRIRFRPPRLPRPRPRPIVHPRP | -0.581 |
| RRIRQRPPRLPRPRPRPTKQPRP | 0.045 |
| RRIRTRPPRLPRPRPRPQYWPRP | -0.163 |
| RRIRARPPRLPRPRPRPLTNPRP | 0.303 |
| RRIRVRPPRLPRPRPRPHAFPRP | 0.0978 |
| RRIRDRPPRLPRPRPRPTMYPRP | -0.107 |
| RRIRQRPPRLPRPRPRPQYKPRP | -0.314 |
| RRIRYRPPRLPRPRPRPYTHPRP | -0.508 |

| Sequence | shrunken log2 fold change |
| --- | --- |
| RRIRQRPPRLPRPRPRPLQSPRP | -0.0698 |
| RRIRTRPPRLPRPRPRPGAPPRP | 0.479 |
| RRIRIRPPRLPRPRPRPMHIPRP | -0.417 |
| RRIRCRPPRLPRPRPRPVAIPRP | -0.156 |
| RRIRARPPRLPRPRPRPASNPRP | 0.5 |
| RRIRNRPPRLPRPRPRPELRPRP | 0.0572 |
| RRIRMRPPRLPRPRPRPTLRPRP | 0.334 |
| RRIRLRPPRLPRPRPRPMKVPRP | -0.00674 |
| RRIRGRPPRLPRPRPRPGSLPRP | 0.421 |
| RRIRMRPPRLPRPRPRPVEPPRP | 0.207 |
| RRIRTRPPRLPRPRPRPWNSPRP | -0.0351 |
| RRIRIRPPRLPRPRPRPGIIPRP | -0.0859 |
| RRIRQRPPRLPRPRPRPENDPRP | -0.0134 |
| RRIRGRPPRLPRPRPRPVDGPRP | 0.587 |
| RRIRWRPPRLPRPRPRPTGSPRP | 0.123 |
| RRIRHRPPRLPRPRPRPFHNPRP | -0.305 |
| RRIRARPPRLPRPRPRPNLNPRP | -0.0397 |
| RRIRGRPPRLPRPRPRPTEPPRP | 0.716 |
| RRIRKRPPRLPRPRPRPRNFPRP | 0.731 |
| RRIRTRPPRLPRPRPRPTQWPRP | 0.364 |
| RRIRPRPPRLPRPRPRPEERPRP | -0.0232 |
| RRIRLRPPRLPRPRPRPMNMPRP | -0.0334 |
| RRIRMRPPRLPRPRPRPIHKPRP | 0.0536 |
| RRIRTRPPRLPRPRPRPGFMPRP | -0.0526 |
| RRIRWRPPRLPRPRPRPAFMPRP | 0.0849 |

| Sequence | shrunken log2 fold change |
| --- | --- |
| RRIRLRPPRLPRPRPRPPYVPRP | -0.0415 |
| RRIRLRPPRLPRPRPRPIYQPRP | -0.385 |
| RRIRKRPPRLPRPRPRPEIQPRP | -0.0762 |
| RRIRRRPPRLPRPRPRPKSIPRP | -0.0792 |
| RRIRNRPPRLPRPRPRPFEPPRP | -0.181 |
| RRIRSRPPRLPRPRPRPRYTPRP | -0.145 |
| RRIRDRPPRLPRPRPRPCHAPRP | -0.0662 |
| RRIRARPPRLPRPRPRPDTAPRP | 0.147 |
| RRIRFRPPRLPRPRPRPFVWPRP | -0.0869 |
| RRIRQRPPRLPRPRPRPFQEPRP | -0.0113 |
| RRIRGRPPRLPRPRPRPPHEPRP | 0.773 |
| RRIRARPPRLPRPRPRPACCPRP | 0.658 |
| RRIRPRPPRLPRPRPRPLAIPRP | 0.00474 |
| RRIRTRPPRLPRPRPRPDSMPRP | 0.0768 |
| RRIRNRPPRLPRPRPRPAKIPRP | -0.405 |
| RRIRFRPPRLPRPRPRPYPVPRP | -0.115 |
| RRIRTRPPRLPRPRPRPNRCPRP | -0.189 |
| RRIRTRPPRLPRPRPRPSKCPRP | -0.535 |
| RRIRHRPPRLPRPRPRPTHFPRP | 0.176 |
| RRIRHRPPRLPRPRPRPPQVPRP | -0.0255 |
| RRIRHRPPRLPRPRPRPSVTPRP | -0.453 |
| RRIRDRPPRLPRPRPRPMHPPRP | -0.0589 |
| RRIRTRPPRLPRPRPRPCYNPRP | -0.645 |
| RRIRIRPPRLPRPRPRPDNKPRP | -0.703 |
| RRIRHRPPRLPRPRPRPPRQPRP | 0.108 |

| Sequence | shrunken log2 fold change |
| --- | --- |
| RRIRVRPPRLPRPRPRPEPMPRP | -0.0177 |
| RRIRVRPPRLPRPRPRPIERPRP | 0.0557 |
| RRIRTRPPRLPRPRPRPPPDPRP | 0.58 |
| RRIRLRPPRLPRPRPRPSKIPRP | -0.349 |
| RRIRNRPPRLPRPRPRPRVNPRP | -0.0734 |
| RRIRKRPPRLPRPRPRPPEGPRP | 1.08 |
| RRIRWRPPRLPRPRPRPSAVPRP | 0.6 |
| RRIRARPPRLPRPRPRPSYEPRP | -0.069 |
| RRIRERPPRLPRPRPRPINTPRP | -0.351 |
| RRIRWRPPRLPRPRPRPKYQPRP | -0.231 |
| RRIRNRPPRLPRPRPRPLRKPRP | -0.099 |
| RRIRSRPPRLPRPRPRPPQVPRP | -0.0457 |
| RRIRGRPPRLPRPRPRPIPWPRP | 0.361 |
| RRIRDRPPRLPRPRPRPMDKPRP | -0.0384 |
| RRIRSRPPRLPRPRPRPFVDPRP | -0.228 |
| RRIRGRPPRLPRPRPRPLTCPRP | 0.416 |
| RRIRGRPPRLPRPRPRPDFQPRP | 1.01 |
| RRIRARPPRLPRPRPRPFCLPRP | 0.0753 |
| RRIRLRPPRLPRPRPRPEVEPRP | 0.0199 |
| RRIRLRPPRLPRPRPRPGFEPRP | 0.168 |
| RRIRFRPPRLPRPRPRPFALPRP | -0.00558 |
| RRIRERPPRLPRPRPRPPAGPRP | 0.589 |
| RRIRRRPPRLPRPRPRPMDRPRP | 0.118 |
| RRIRYRPPRLPRPRPRPKVCPRP | 0.0165 |
| RRIRTRPPRLPRPRPRPHYNPRP | -0.75 |

| Sequence | shrunken log2 fold change |
| --- | --- |
| RRIRIRPPRLPRPRPRPKYQPRP | -0.615 |
| RRIRVRPPRLPRPRPRPYGDPRP | -0.168 |
| RRIRARPPRLPRPRPRPHLYPRP | -0.218 |
| RRIRHRPPRLPRPRPRPGTDPRP | -0.0998 |
| RRIRVRPPRLPRPRPRPTCTPRP | -0.00861 |
| RRIRDRPPRLPRPRPRPYTYPRP | 0.0218 |
| RRIRRRPPRLPRPRPRPHLVPRP | 0.127 |
| RRIRTRPPRLPRPRPRPIVEPRP | 0.0431 |
| RRIRGRPPRLPRPRPRPQLAPRP | 1.19 |
| RRIRIRPPRLPRPRPRPIQYPRP | -0.251 |
| RRIRERPPRLPRPRPRPAEIPRP | -0.207 |
| RRIRFRPPRLPRPRPRPDPVPRP | 0.227 |
| RRIRMRPPRLPRPRPRPSMRPRP | 0.429 |
| RRIRDRPPRLPRPRPRPHVMPRP | -0.0796 |
| RRIRNRPPRLPRPRPRPNCIPRP | -0.679 |
| RRIRRRPPRLPRPRPRPMMPPRP | 0.135 |
| RRIRMRPPRLPRPRPRPEFVPRP | 0.383 |
| RRIRYRPPRLPRPRPRPAPYPRP | -0.557 |
| RRIRCRPPRLPRPRPRPGWNPRP | -0.243 |
| RRIRCRPPRLPRPRPRPCKLPRP | -0.896 |
| RRIRWRPPRLPRPRPRPMMFPRP | -0.117 |
| RRIRYRPPRLPRPRPRPSAEPRP | -0.0651 |
| RRIRVRPPRLPRPRPRPDDMPRP | -0.239 |
| RRIRIRPPRLPRPRPRPPNNPRP | -0.637 |
| RRIRIRPPRLPRPRPRPPRCPRP | 0.0758 |
